Here are results for 94 variants from the supplement of paper PMC10567573.

B1: C9orf25 (parent)
chain: LARKGSLKNGSMGSPVNQQPKKNN
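Note: lentivirally expressed fusions sorted by FACS into six bins by GFP to DsRed ratio, PSI derived from sequencing read proportions per bin multiplied by bin number.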

Variants of B1 are the subject of the data set. Nature of the data set: protein stability index of a GFP-peptide fusion (GPS, HEK-293T) (PSI 1-6); higher = more stable. The conditions noted are these: c terminus: a fixed tail appended.
Consider LARKGSLKNGSMGSKVNQQPKKNN [P15K], for which the protein stability index worked out at 4.34. As to LARKGSLKNGSMGSEVNQQPKKNN [P15E], the protein stability index was 4.53. As to LARKGSLKNGSMGSHVNQQPKKNN [P15H], the protein stability index was determined as 4.24. For LARKGSLKNGSMGSNVNQQPKKNN [P15N], the protein stability index came to 4.42.

On to LARKGSLKNGSMGSIVNQQPKKNN [P15I], for which the protein stability index is 4.66. Turning to LARKGSLKNGSMGSDVNQQPKKNN [P15D], the protein stability index stood at 5.45. The result for LARKGSLKNGSMGSRVNQQPKKNN [P15R] reads 3.8.

Turning to LARKGSLKNGSMGSCVNQQPKKNN [P15C], the protein stability index was 4.48. As to LARKGSLKNGSMGSYVNQQPKKNN [P15Y], the protein stability index is 4.4.

As to LARKGSLKNGSMGSQVNQQPKKNN [P15Q], the protein stability index was 5.26. Turning to LARKGSLKNGSMGSGVNQQPKKNN [P15G], the protein stability index came out at 5. As to LARKGSLKNGSMGSFVNQQPKKNN [P15F], the protein stability index is 4.2. The value for LARKGSLKNGSMGSMVNQQPKKNN [P15M] was 4.66; that for LARKGSLKNGSMGSLVNQQPKKNN [P15L] was 4.59; that for LARKGSLKNGSMGSSVNQQPKKNN [P15S] was 4.26. As for LARKGSLKNGSMGSTVNQQPKKNN [P15T], the protein stability index worked out at 4.95. LARKGSLKNGSMGSAVNQQPKKNN [P15A]: the protein stability index turned out to be 4.42. Consider LARKGSLKNGSMGSWVNQQPKKNN [P15W], for which the protein stability index turned out to be 4.27.

For LARKGSLKNGSMGSVVNQQPKKNN [P15V], the protein stability index worked out at 4.62.

With LARKGSLKNGSMGSPVNQQPHKNN [K21H], the protein stability index came out at 4.9. Regarding LARKGSLKNGSMGSPVNQQPEKNN [K21E], the protein stability index was found to be 4.87. Regarding LARKGSLKNGSMGSPVNQQPLKNN [K21L], the protein stability index came to 4.25. On to LARKGSLKNGSMGSPVNQQPTKNN [K21T], for which the protein stability index came to 4.39. In the case of LARKGSLKNGSMGSPVNQQPGKNN [K21G], the protein stability index worked out at 4.25. For the variant LARKGSLKNGSMGSPVNQQPPKNN [K21P], the protein stability index is 4.18. Consider LARKGSLKNGSMGSPVNQQPFKNN [K21F], for which the protein stability index was determined as 4.07. The result for LARKGSLKNGSMGSPVNQQPMKNN [K21M] reads 4.21.

On to LARKGSLKNGSMGSPVNQQPAKNN [K21A], for which the protein stability index stood at 4.7. As to LARKGSLKNGSMGSPVNQQPNKNN [K21N], the protein stability index turned out to be 4.65. As to LARKGSLKNGSMGSPVNQQPSKNN [K21S], the protein stability index came out at 4.3. In the case of LARKGSLKNGSMGSPVNQQPRKNN [K21R], the protein stability index is 4.82. For LARKGSLKNGSMGSPVNQQPYKNN [K21Y], the protein stability index was 4.

As to LARKGSLKNGSMGSPVNQQPQKNN [K21Q], the protein stability index came out at 4.48.

Regarding LARKGSLKNGSMGSPVNQQPDKNN [K21D], the protein stability index worked out at 5.25. Take LARKGSLKNGSMGSPVNQQPCKNN [K21C]: the protein stability index was 3.98. Take LARKGSLKNGSMGSPVNQQPWKNN [K21W]: the protein stability index came out at 2.95. For LARKGSLKNGSMGSPVNQQPIKNN [K21I], the protein stability index is 4.28. Consider LARKGSLKNGSMGSPVNQQPVKNN [K21V], for which the protein stability index amounted to 4.32. As for LARKGSLKNGSMGSPVNSQPKKNN [Q18S], the protein stability index worked out at 4.97.

On to LARKGSLKNGSMGSPVNGQPKKNN [Q18G], for which the protein stability index was 4.37. As to LARKGSLKNGSMGSPVNNQPKKNN [Q18N], the protein stability index is 4.59. Take LARKGSLKNGSMGSPVNCQPKKNN [Q18C]: the protein stability index came out at 4.6. As to LARKGSLKNGSMGSPVNDQPKKNN [Q18D], the protein stability index was 5.17.

For the variant LARKGSLKNGSMGSPVNAQPKKNN [Q18A], the protein stability index came to 4.74. Turning to LARKGSLKNGSMGSPVNIQPKKNN [Q18I], the protein stability index came out at 4.52. The result for LARKGSLKNGSMGSPVNYQPKKNN [Q18Y] reads 4.17; that for LARKGSLKNGSMGSPVNWQPKKNN [Q18W], 3.67. Consider LARKGSLKNGSMGSPVNTQPKKNN [Q18T], for which the protein stability index is 5.01. For the variant LARKGSLKNGSMGSPVNLQPKKNN [Q18L], the protein stability index was found to be 4.32. Regarding LARKGSLKNGSMGSPVNPQPKKNN [Q18P], the protein stability index is 4.55. LARKGSLKNGSMGSPVNFQPKKNN [Q18F]: the protein stability index is 4.4. For the variant LARKGSLKNGSMGSPVNEQPKKNN [Q18E], the protein stability index was found to be 5.18. With LARKGSLKNGSMGSPVNKQPKKNN [Q18K], the protein stability index is 5.08.

For LARKGSLKNGSMGSPVNRQPKKNN [Q18R], the protein stability index is 4. In the case of LARKGSLKNGSMGSPVNMQPKKNN [Q18M], the protein stability index stood at 4.64. The value for LARKGSLKNGSMGSPVNHQPKKNN [Q18H] was 4.82; that for LARKGSLKNGSMGSPVNVQPKKNN [Q18V] was 4.64. Regarding LARKGSLKNGSMGSPVAQQPKKNN [N17A], the protein stability index was 4.25.

On to LARKGSLKNGSMGSPVPQQPKKNN [N17P], for which the protein stability index is 4.95. Regarding LARKGSLKNGSMGSPVVQQPKKNN [N17V], the protein stability index amounted to 4.6. For the variant LARKGSLKNGSMGSPVWQQPKKNN [N17W], the protein stability index was found to be 3.62.

For the variant LARKGSLKNGSMGSPVRQQPKKNN [N17R], the protein stability index worked out at 4.47. With LARKGSLKNGSMGSPVCQQPKKNN [N17C], the protein stability index was found to be 4.53.

Take LARKGSLKNGSMGSPVKQQPKKNN [N17K]: the protein stability index was 4.47.

Take LARKGSLKNGSMGSPVDQQPKKNN [N17D]: the protein stability index was 5.12.

On to LARKGSLKNGSMGSPVMQQPKKNN [N17M], for which the protein stability index is 4.83. In the case of LARKGSLKNGSMGSPVLQQPKKNN [N17L], the protein stability index worked out at 4.64. For LARKGSLKNGSMGSPVGQQPKKNN [N17G], the protein stability index amounted to 4.27. Turning to LARKGSLKNGSMGSPVEQQPKKNN [N17E], the protein stability index was found to be 5.07. On to LARKGSLKNGSMGSPVIQQPKKNN [N17I], for which the protein stability index was 4.72.

With LARKGSLKNGSMGSPVSQQPKKNN [N17S], the protein stability index was 4.54.

Regarding LARKGSLKNGSMGSPVHQQPKKNN [N17H], the protein stability index came out at 5.11. The result for LARKGSLKNGSMGSPVYQQPKKNN [N17Y] reads 4.27; that for LARKGSLKNGSMGSPVFQQPKKNN [N17F], 4.31; that for LARKGSLKNGSMGSPVTQQPKKNN [N17T], 3.98.

As to LARKGSLKNGSMGSPVQQQPKKNN [N17Q], the protein stability index came to 4.74.

Consider LARKGSLKNGSMGVPVNQQPKKNN [S14V], for which the protein stability index was 4.77. The result for LARKGSLKNGSMGQPVNQQPKKNN [S14Q] reads 4.74; that for LARKGSLKNGSMGMPVNQQPKKNN [S14M], 4.97. LARKGSLKNGSMGFPVNQQPKKNN [S14F]: the protein stability index is 4.3.

On to LARKGSLKNGSMGLPVNQQPKKNN [S14L], for which the protein stability index was found to be 4.5. With LARKGSLKNGSMGAPVNQQPKKNN [S14A], the protein stability index worked out at 4.73. The value for LARKGSLKNGSMGTPVNQQPKKNN [S14T] was 4.42; that for LARKGSLKNGSMGRPVNQQPKKNN [S14R] was 4.23. Turning to LARKGSLKNGSMGPPVNQQPKKNN [S14P], the protein stability index was 5.02. The value for LARKGSLKNGSMGYPVNQQPKKNN [S14Y] was 4.25; that for LARKGSLKNGSMGWPVNQQPKKNN [S14W] was 4.13; that for LARKGSLKNGSMGGPVNQQPKKNN [S14G] was 4.8. LARKGSLKNGSMGDPVNQQPKKNN [S14D]: the protein stability index was 4.96. Consider LARKGSLKNGSMGIPVNQQPKKNN [S14I], for which the protein stability index was 4.62. As for LARKGSLKNGSMGEPVNQQPKKNN [S14E], the protein stability index was 4.75.

Turning to LARKGSLKNGSMGNPVNQQPKKNN [S14N], the protein stability index was found to be 4.81. In the case of LARKGSLKNGSMGKPVNQQPKKNN [S14K], the protein stability index was found to be 4.83. In the case of LARKGSLKNGSMGCPVNQQPKKNN [S14C], the protein stability index stood at 4.06.
